Assay results from patent US20230304022, “CHIMERIC POLYPEPTIDES HAVING TARGETED BINDING SPECIFICITY” (The Scripps Research Institute, published 2023).

The binders below were run against MBP-TALE AvrXa7 NT-βN (synthetic, [XXX]=Y-H) (assay: p228, FIG 26). Conditions: tags: MBP; label: 5'-biotin; hairpin.

Row | Binder | binding result
1 | Avr 5'C biotin hairpin (dsDNA) DNA: ATCTTAGCACCTGGTTGGAGGGGGTTTATGGGGTTTTCCCCATAAACCCCCTCCAACCAGGTGCTAAGAT | binds
2 | Avr 5'A biotin hairpin (dsDNA) DNA: ATCTTAGCACCTGGTTGGAGGGGGTTTATTGGGTTTTCCCAATAAACCCCCTCCAACCAGGTGCTAAGAT | binds
3 | Avr 5'G biotin hairpin (dsDNA) DNA: ATCTTAGCACCTGGTTGGAGGGGGTTTATCGGGTTTTCCCGATAAACCCCCTCCAACCAGGTGCTAAGAT | binds
